This note sets out measurements from the DeepSol protein solubility set.

This data set in a line: soluble on expression in E. coli; label from the status in PepcDB or PDB records.
As to “MLTIAMPKGRIFEEAVELLRRGDYALPPEFTESRKLVIDVPEENMRFILAKPMDVVTYVEHGVADLGIAGKDVLMEEERDVYELLDLQISRCHLAVAGLPGAKMNEIAPRVATKYPNIASTYFREQGEQVEIIRLNGSIELAPLIGLADRIVDIVSTGRTLRENGLVELERIAEVTSRLIVNPASYRLNGGDIERLVDRLAAVIPQP”, the “soluble on expression in E. coli” value was “not soluble”.
For “MLESVHQASAYTADVQPADVVIVGAGAAGLAAAHHLTRAGLTTAVLEAAPNVGGRMSTEKVDGFRLDRMGQLLSTAYPELRSTPGLDALPLREFSPGVLVHSDGHLHRVGEPGTPRSARGALTAARALASAPRQQRTPRAPRTQGASRPGLLGSPVGQSRLAGALARLAATPPDRLLSRPELPAARALSALGLPPRTIDGFLRPLLAALLCDPALETSSRCADLALRAFVTGRLCVPEGGADVLPELLAATLPPGTVHTGVRVTAVSTTSVTTKDHGELRCRAVLLATGARAAARLLPGLRVPGFHPVTVLHHTTDEPPLGDPALVLDAERGGPVAHTAVISRVDPSRAPAGRALVSSTVLGTPPPPDRLEAAVRAQLARLYRTSTARWELLAIHHDSEAVPAMPPPHDPRRPVRLLAGLYICGDHRDTSTVQGALRSGRRAAHALLTDVGAGQTSLEEPLETAALEHHHHHH” the value was “not soluble”; for “MALRWGIVSVGLISSDFTAVLQTLPRSEHQVVAVAARDLSRAKEFAQKHDIPKAYGSYEELAKDPNVEVAYVGTQHPQHKAAVMLCLAAGKAVLCEKPMGVNAAEVREMVTEARSRGLFLMEAIWTRFFPASEALRSVLAQGTLGDLRVARAEFGKNLTHVPRAVDWAQAGGALLDLGIYCVQFISMVFGGQKPEKISVMGRRHETGVDDTVTVLLQYPGEVHGSFTCSITAQLSNTASVSGTKGMAQLLNPCWCPTELVVKGEHKEFLLPPVPKNCNFDNGAGMSYEAKHVRECLRKGLKESPVIPLVESELLADILEEVRRAIGVTFPQDKH”, “soluble”; for “MSLSNSLLPPNASGLERDIEQVIVQSTDLPIRIKDLWNPYSCHLSLLPWLAWALSVDEWDDRWPEHIKRQVVQDSFDVHRFKGTPYAVQKALDSLNIKTHLREWWEPDGSQEPGTMTVVALINENLTDDDNGLITEAMLEQVTRVIHTAKRGVIHFDVELGISLDETLGFSGAIGPSIAEIDFSSDFLPIVPEKGSADMAFSAALYGIGSADFLADMSGVVPDEGHHHHHH”, “not soluble”.
As to “MAHHHHHHMKKKNNNKLHYLDSKGKLYTSGLRSDTKEKYGEIPSSNKNHNLIEKYNELQSLLSKEEEKYDFVKNELGDLQKQKDLLKWHLCNNIKKLSMKRSDYKFKTETKSKLESKLKSLKDMNKIHKFEHDTLEELVHKMEQELETKMYIKNDIENIFNECINKKDEYLKDITQERISVFKERKKRQNQLQKLLLIMKQENNKNYNINYLKKYESNLMNEINSYKNYKDFETKIAMDLIDDHSLNDLYVT”, the “soluble on expression in E. coli” value is “not soluble”.
In the case of “MSSHFVDWLIAHGYEQDAFDRPDVGPAGSFGGKTRSGDPVEKEPVIFIHGSGDTALFTQQPLATGFSRSIQYFLEQNYTEAELYATTWGDTWGSGSMLDTYSTIHTCGNLIYLRRFLEAVIGYTGAKKVDIIAHSVGVPLMRKVVKGGTLIGTDGNCTLGPPLGAKVDTFLGIAGPNFGLCVCQLAQTVPAWCNALDGLYPGYTCQDQLWCGYTSGSCKQENYSNLLQKTNDDPNREGDHVYAMWSDVDEVLLNRGMVWGKPTARIPGMNGRWISDRNGHVAMKDLTELRQFEAIVHHSI”, the “soluble on expression in E. coli” value is reported as “not soluble”.
To “MGSDKIHHHHHHVVDSLQQWQEVEAVLADLSQASQEHHYRQTHRLVQDYLDRLQLSPREQQGLEPLLKSLERMQAKLEQQVLHIAVFGLVGRGKSSLLNALVGETVFETGAIHGVTTAIATAAWPLTTDEDGVQRLRWSGLGDVQVELIDTPGIDEIDGDQREALAKRVAQQADLILFVVSGDISQLEQDTLTVLHQAHKPLLLVLNKADQYSDRDREAIRNKLADERLRHLISIDEIVTVAAAPRQAEPEYDGDRLVGTKLVSLPPQVEPLRQRIITLLLHEGQSLLALNALLQMAMVDRQVVRRKLQSRDRQAEELIWRFAIAKGMAVAINPISFVDLLGGAAIDVALILQLSQLYDLPIGEGKAIALLRTIAVGMGSLGLGEGLVRVGLSALKGLMGVAAPVSGGLSLGVYVPVALTQAGIGGFATYAIGQVTKAYLANGADWGPEGAGLLTQQILDSLDEAAILQRLRGEIDRRLRLKQL” belongs “not soluble”; to “MKMDTGALTFQQKIYWLVKQIPLGRVATYGQIAALCGWPRHGRYVGYALYRVAPNSDIPWHRVVNAQGKISYAPQRRGTDELQRWRLAAEGIIFTAGDRINLRRYQWQPPATVYQQLIWPEGAATDSAKALEHHHHHH”, “soluble”; to “MLPERVLEILREMKRERIKGASWLAKKGAEAFLTLAEELDESLLEDAIMELREEVVKVNPSMASLYNLARFIPVTNRRDILKSRALEFLRRMEEAKRELASIGAQLIDDGDVIITHSFSSTVLEIIRTAKERKKRFKVILTESSPDYEGLHLARELEFSGIEFEVITDAQMGLFCREASIAIVGADMITKDGYVVNKAGTYLLALACHENAIPFYVAAETYKFHPTLKSGDVMLMERDLIRGNVRIRNVLFDVTPWKYVRGIITELGIVIPPRDIQ”, “soluble”.
To “MGSDKIHHHHHHMPTRVIEDKGDMTPSFGIDDRIFLGEGLFETIRVNSSKPSFAYMHWERLGNSARQLGIPFEISFDDWFEHLIQKIQKDNLYHGGIKAILSGGPASRGLAERGQVSQLIFQTFNYSIQKHPVRLISINWLRDKANPLYQLKSVNYLEAIIAQRQAIAVGADDALFFNTENHVTETTCANLFLIENNILYTPRVEDGILPGITRARLISHCQQHKMSVQEISLTKKRIEDADAVFLTNSLQGIRRVLSLDNIIFEVNHPIIDKLIFLLNQDES” belongs “not soluble”; to “MEQKKKKNIGFNIIKDDPTDGHRGFGAGALSLENVSPVIIDVEAGEAFVDMGAMHARSAVERGIKFLPDRSAVPNGKPYWIVWVTIERREDGPYYAGVTACEMTIDREARRGYKLLPEHVNRLDKSLKRHIIVDHMDAKSKRVLADFLKGHDIGMWNRSSDELKKGLEGEL”, “not soluble”; to “MVFKSKKDKFSEMLMNVSENLKEGAQFFVEYKIKNASDLKEFSMRMKEYESKGDSFIHEIIMELNKAFITPIEREDILQLAMSMDDVLDGLDHSAGLFEMYSITEADEYMIKFVEAINQCAIEIANSVELMSNKKLVDIRTNAIKIKDYESQCDDIRRHAIKNLFSREKDPIKIIQFKEIYEELEEVADSCQSVANVLETIIMKNALEHHHHHH”, “soluble”.
To “MGSDKIHHHHHHMKIAHVAPLYESVPPRLYGGTERIISYLTEALVDLGHDVTLFASGDTKTSAKLVPCRERALRLDPRPLKSEIAAHLSMLDEVRKRADDFDVIHFHLSHFLHFPFFRDMPQRTVTTPHGRLDYADLAQAYDRFPRFPMVSISRSQRARFASANWLATIHHGLPVDLYEPDFEAGSDGGYLAFLGRMSRDKRPDRAIEIARRTGLKLKLAAKIGDGDRAYFEEVVQPMIDGDRVEYVGEIGEDQKSRFLGNAAALLFPIDWPEPFGLAVIEAMACGTPVMAWSCGAMPEIVDYGVTGFVVETIEDAVATMPALLQLDRRRIRAVFERRFSADRMARDYVEAYSRLRNGHEQSRAS” belongs “not soluble”; to “MFRMPIVTMERVDSFSAAHRLHSEKLSDAENKETFGKCNNSNGHGHNYVWKVKLRGEVDPTSGMVYDLAKLKKEMSLVLDTVDHRNLDKDVEFFKTTVSTSENVAIYMFEKLKSVMSNPSVLYKVTIEETPKNIFTYKGS”, “soluble”.
For “MDLFKRKVKEWVYSLSTDDHYAEYNPDETPTFNMGKRLNSNNGQVNPSQMHLNSVDEEMSMGFQNGVPSNEDINIDEFTSTESNDGVSETLLAWRHIDFWTSEHNPDLNATLSDPCTQNDITHAEEDLEVSFPNPVKASFKIHDGQEDLESMTGTSGLFYGFQLMTLDQVVAMTQAWRNVAKNLNKRSQQGLSHVTSTGSSSSMERLNGNKFKLPNIPDQKSIPPNAVQPVYAHPAWIPLITDNAGNHIGVDLAPGPNGKYAQIITFGRDFDTKFVIAENWGEFLLSFANDLEAGNWYLVDDNDDYFSGDGELVFRDKKSNGPIQDYFEVLKRRTWIKYQENLRSQQQKSQPDTSLQEQKYVPASQKKVAAEQPSTLNAESIKGEDSGSADVQSVQDHESVKIVKTEPSEAETTTVNTESLGQAEHEIKADNVDIKQESERKEDEKQPKVEEKEHVENEHVTESAKKDDDVNKQTEEMNKKEENEIRSDDAKVEEAREEFENIAL”, the “soluble on expression in E. coli” value was “soluble”.
For “MEFTGKIIAILPPRGGVSKTSGNEWKSQEFVIENHDQYPRKMCFDVFGADKIEQFNIQMGEELTVSFDVDARQWNDRWFNSIRAWKVERVGAGAPMTPGAPVPPPAPSATPDFTMGDAKDDLPF” the value was “not soluble”.
For “MGHHHHHHGGHMSLTTSTPSNRILVVMSSAAQIPLQDGKNHNTGYFLNEFGVPAKRLTDAGYELVIATPRGSVPGMDHNSDHDMFFKNKEEHNEIKAFVGDVLSNTTIQTTEAVAAEGTQAYAALFLPGGHAPMADLMADPALGEILRQFHAAAKPTALICHAPTALLAAQADPVAFQKGMEAGEQPSAQDFTYQGYRVTVFANDEEEATEKTFEAPMLYYPADALTQGGAQVENGEAMKPNVVRDRELLTGQNPFSDEPFVAQLLEMLGEGGS” the value was “soluble”; for “MGFGFRHILTEREFTRSFAIQRKLKVIAEEIKADVIITHDTGCTTTFEKNQWIGKAHGMYYPVAVMSDVMFSALACGAHPFKVVQLYWNCSNYEPLLEKMGITNWRELKKEWEDTVKYIAELEKQGKYDELLEFFKEYDLYEPYSKTSDGFKLRKSATADLPLFKS”, “not soluble”.
Consider “SKSINVDQISIRSLSEPANPFSFWQWIFIYLPGLKEDEKQEILTHEQTHVRQWHSIDVIISEIVNIICWMNPFAWLLKTEIRLNLEYLADHKVMESGTNKKAYQYHLLGLA”, for which the “soluble on expression in E. coli” value was “not soluble”.
Take “MAHHHHHHMLRRVPLRLARRKHGQTAWSPNNTSSGAAPTNGITAQEALQIAYRPMPPANTVEYEEDFGPNMMIHREFVSSRHRTRMASDISALAYSDVELARARQQLAGVMNRERRGALVGSGGEAGDRVLFNSDVDETTREVKSARFLFNEQRMRFCDRFQTFFRERIERWAAGDAGAGEDDHPYFSLMEACAVLHGCDTVDAREVYYRRFLGLDLDTLEAEEAALRARAADAAEVGARLTRGEAGAGGGALVAAAAGGAGGAGSATDVVQDIIDALPPLFPQPAAAEVGEASEAVADAPPARARAAGAGELPPATAAAPAHLAEDAAPLYKAYLAHARGESPVGSYDVTTLGAHAAHAERRRWRSLMDKIAAEDYHELTAAELEDAHVLNGQLHTVKFFDLKVGDTVREIVQLLERETGSSASGDRDVPVEMSPTHPERRV”: the “soluble on expression in E. coli” value is “not soluble”.
For “MKTCFLSIWRVVDPIYFFFSRLSLIDNDQKSVFRVRLTKYKGHHVVLSDGTHIRKNDVLVKIHLHNIKLIRELQSIESAVRKGIIIYQKVYPSMPLLLDYINNHKKSEKIKGNHWITMLDKGVERLGFDVITPVNPFYRCFKKVSHVPILYLTSKPVSLRHLPNSSYLFISKEKLQKTYQKKDMAGDPLEHHHHHH” the value was “not soluble”; for “MQCSRALALRLILIAPNGTSVKTLLRPRLDESWEQFVRRRLATPIRRQRIACDRTQKEVADIVGVSHHSIQRWELAYVRSRPIAHIVWAQAHDFLLGLELIHALGRTPRRVSRAHHVHSGR”, “not soluble”.
